Data on one substance can be found in patent US20170051047A1.

The target of assay [1] is Clostridium difficile toxin A (whole toxin A) (Clostridium difficile) (UniProt P16154). Nature of the assay: cell-based or functional assay.
The target is the same in assay [2].

As a reminder, the Kd is the equilibrium constant for the complex coming apart. The term koff denotes a measure of how fast the partners let go of each other. A word on the kon: it is the second-order rate constant of association. Higher therefore signals faster complex formation. Substance “CDA1 (Merck anti-toxin A mAb used as a control) (antibody)” came in with an IC50, in vitro toxin A neutralization on Vero cells in assay [1] of 0.347 µg/mL. In assay [2], the Kd was 0.624 nM, the koff is 0.000291 s⁻¹ and the kon was determined as 480000 M⁻¹ s⁻¹.
